Measurements taken from the Immune Epitope Database (IEDB).

Assays:
[1] = target: HLA-A*26:01; assay: IEDB peptide-MHC binding, purified MHC/competitive/fluorescence; filed as Kd, often an IC50 or EC50 that approximates it; ≥ and ≤ were set here for values at or beyond the usual limits of such assays
[2] = target: HLA-A*69:01; assay: as above; settings: source organism: Bacillus anthracis str. A0488
[3] = target: HLA-A*02:19; assay: as above
[4] = target: HLA-A*68:02; assay: as above
[5] = target: HLA-A*24:03; assay: as above
[6] = target: HLA-B*15:01; assay: as above
[7] = target: HLA-B*57:01; assay: as above
[8] = target: HLA-A*23:01; assay: as above
[9] = target: HLA-A*03:01; assay: as above
[10] = target: HLA-B*18:01; assay: as above
[11] = target: HLA-A*29:02; assay: as above
[12] = target: HLA-B*15:17; assay: as above; settings: source organism: Bacillus anthracis str. A0488
[13] = target: HLA-B*46:01; assay: as above
[14] = target: HLA-A*02:01; assay: as above
[15] = target: HLA-A*02:16; assay: as above; settings: source organism: Bacillus anthracis str. A0488
[16] = target: HLA-B*51:01; assay: as above
[17] = target: HLA-B*27:03; assay: as above
[18] = target: HLA-A*26:01; assay: IEDB peptide-MHC binding, purified MHC/direct/fluorescence; filed as Kd, often an IC50 or EC50 that approximates it; ≥ and ≤ were set here for values at or beyond the usual limits of such assays; settings: source organism: Variola virus
[19] = target: HLA-A*69:01; assay: as above; settings: source organism: Aracatuba virus
[20] = target: HLA-A*68:02; assay: as above; settings: source organism: Aracatuba virus
[21] = target: HLA-B*15:01; assay: as above
[22] = target: HLA-B*58:01; assay: as above
[23] = target: HLA-B*57:01; assay: as above
[24] = target: HLA-B*08:02; assay: as above; settings: source organism: Variola virus
[25] = target: HLA-B*27:05; assay: as above; settings: source organism: Aracatuba virus
[26] = target: HLA-A*01:01; assay: as above
[27] = target: HLA-A*26:02; assay: as above; settings: source organism: Variola virus
[28] = target: HLA-B*39:01; assay: as above
[29] = target: HLA-B*18:01; assay: as above
[30] = target: HLA-B*40:01; assay: as above
[31] = target: HLA-B*07:02; assay: as above
[32] = target: HLA-B*38:01; assay: as above
[33] = target: HLA-B*15:17; assay: as above; settings: source organism: Aracatuba virus
[34] = target: HLA-B*08:01; assay: as above; settings: source organism: Variola virus
[35] = target: HLA-B*46:01; assay: as above
[36] = target: HLA-A*02:01; assay: as above
[37] = target: HLA-A*30:01; assay: IEDB peptide-MHC binding, purified MHC/competitive/fluorescence; filed as Kd, often an IC50 or EC50 that approximates it; ≥ and ≤ were set here for values at or beyond the usual limits of such assays; settings: source organism: Rabbitpox virus
[38] = target: HLA-B*48:01; assay: as above; settings: source organism: Rabbitpox virus
[39] = target: HLA-B*39:01; assay: as above; settings: source organism: Giardia lamblia ATCC 50803
[40] = target: HLA-A*02:12; assay: as above; settings: source organism: Giardia lamblia ATCC 50803
[41] = target: HLA-B*08:03; assay: IEDB peptide-MHC binding, purified MHC/direct/fluorescence; filed as Kd, often an IC50 or EC50 that approximates it; ≥ and ≤ were set here for values at or beyond the usual limits of such assays; settings: source organism: Ravn virus - Ravn, Kenya, 1987
[42] = target: HLA-B*48:01; assay: as above; settings: source organism: Ebola virus - Mayinga, Zaire, 1976
[43] = target: HLA-A*26:02; assay: IEDB peptide-MHC binding, purified MHC/competitive/fluorescence; filed as Kd, often an IC50 or EC50 that approximates it; ≥ and ≤ were set here for values at or beyond the usual limits of such assays; settings: source organism: Zaire ebolavirus
[44] = source organism: Bacillus anthracis str. A0488
[45] = source organism: Aracatuba virus
[46] = source organism: Giardia lamblia ATCC 50803
[47] = source organism: Ebola virus - Mayinga, Zaire, 1976
[48] = source organism: Zaire ebolavirus

**Q.** How did the Kd [1, 44] turn out when KQGDVFYTA was run?
**A.** ≥ 20 µM

**Q.** And the Kd [2]?
**A.** ≥ 20 µM

**Q.** What about the Kd [3, 44] of the same sequence?
**A.** ≥ 20 µM

**Q.** What about the Kd [4, 44] of the same sequence?
**A.** ≥ 20 µM

**Q.** And the Kd [5, 44]?
**A.** ≥ 20 µM

**Q.** And the Kd [6, 44]?
**A.** ≥ 20 µM

**Q.** What about the Kd [7, 44] of the same sequence?
**A.** ≥ 20 µM

**Q.** And the Kd [8, 44]?
**A.** ≥ 20 µM

**Q.** And the Kd [9, 44]?
**A.** ≥ 20 µM

**Q.** What about the Kd [10, 44] of the same sequence?
**A.** ≥ 20 µM

**Q.** And the Kd [11, 44]?
**A.** ≥ 20 µM

**Q.** And the Kd [12]?
**A.** ≥ 20 µM

**Q.** And the Kd [13, 44]?
**A.** ≥ 20 µM

**Q.** And the Kd [14, 44]?
**A.** ≥ 20 µM

**Q.** And the Kd [15]?
**A.** 0.0514 µM

**Q.** And the Kd [16, 44]?
**A.** ≥ 20 µM

**Q.** What about the Kd [17, 44] of the same sequence?
**A.** ≥ 20 µM

**Q.** With YKEPNSIIL as the sequence, how does the Kd [18] read?
**A.** ≥ 20 µM

**Q.** And the Kd [19]?
**A.** ≥ 20 µM

**Q.** What about the Kd [20] of the same sequence?
**A.** ≥ 20 µM

**Q.** And the Kd [21, 45]?
**A.** ≥ 20 µM

**Q.** What about the Kd [22, 45] of the same sequence?
**A.** ≥ 20 µM

**Q.** What about the Kd [23, 45] of the same sequence?
**A.** ≥ 20 µM

**Q.** What about the Kd [24] of the same sequence?
**A.** ≥ 20 µM

**Q.** And the Kd [25]?
**A.** ≥ 20 µM

**Q.** And the Kd [26, 45]?
**A.** ≥ 20 µM

**Q.** And the Kd [27]?
**A.** ≥ 20 µM

**Q.** And the Kd [28, 45]?
**A.** 0.0305 µM

**Q.** What about the Kd [29, 45] of the same sequence?
**A.** ≥ 20 µM

**Q.** And the Kd [30, 45]?
**A.** ≥ 20 µM

**Q.** What about the Kd [31, 45] of the same sequence?
**A.** ≥ 20 µM

**Q.** And the Kd ([32]; source organism: Variola virus)?
**A.** 0.617 µM

**Q.** And the Kd [33]?
**A.** ≥ 20 µM

**Q.** What about the Kd [34] of the same sequence?
**A.** ≥ 20 µM

**Q.** What about the Kd [35, 45] of the same sequence?
**A.** ≥ 20 µM

**Q.** And the Kd [36, 45]?
**A.** ≥ 20 µM

**Q.** And the Kd [37]?
**A.** ≥ 20 µM

**Q.** What about the Kd [38] of the same sequence?
**A.** 0.224 µM

**Q.** STTTCEAGV was tested. Which Kd [1, 46] did it give?
**A.** ≥ 20 µM

**Q.** What about the Kd [3, 46] of the same sequence?
**A.** ≥ 20 µM

**Q.** And the Kd [5, 46]?
**A.** ≥ 20 µM

**Q.** And the Kd [6, 46]?
**A.** ≥ 20 µM

**Q.** And the Kd [7, 46]?
**A.** ≥ 20 µM

**Q.** What about the Kd [8, 46] of the same sequence?
**A.** ≥ 20 µM

**Q.** What about the Kd [39] of the same sequence?
**A.** ≥ 20 µM

**Q.** What about the Kd [9, 46] of the same sequence?
**A.** ≥ 20 µM

**Q.** And the Kd [10, 46]?
**A.** ≥ 20 µM

**Q.** What about the Kd [11, 46] of the same sequence?
**A.** ≥ 20 µM

**Q.** What about the Kd [40] of the same sequence?
**A.** 0.284 µM

**Q.** And the Kd [13, 46]?
**A.** ≥ 20 µM

**Q.** What about the Kd [14, 46] of the same sequence?
**A.** ≥ 20 µM

**Q.** What about the Kd [16, 46] of the same sequence?
**A.** ≥ 20 µM

**Q.** And the Kd [17, 46]?
**A.** ≥ 20 µM

**Q.** For SRTPSGKRL, which Kd [21, 47] is on record?
**A.** ≥ 20 µM

**Q.** What about the Kd [22, 47] of the same sequence?
**A.** ≥ 20 µM

**Q.** And the Kd [23, 47]?
**A.** ≥ 20 µM

**Q.** And the Kd [41]?
**A.** ≥ 20 µM

**Q.** What about the Kd [26, 47] of the same sequence?
**A.** ≥ 20 µM

**Q.** What about the Kd [28, 47] of the same sequence?
**A.** ≥ 20 µM

**Q.** And the Kd [29, 47]?
**A.** ≥ 20 µM

**Q.** And the Kd [42]?
**A.** ≥ 20 µM

**Q.** And the Kd [30, 47]?
**A.** ≥ 20 µM

**Q.** What about the Kd [31, 47] of the same sequence?
**A.** ≥ 20 µM

**Q.** And the Kd ([32]; source organism: Ravn virus - Ravn, Kenya, 1987)?
**A.** ≥ 20 µM

**Q.** And the Kd [35, 47]?
**A.** ≥ 20 µM

**Q.** What about the Kd [36, 47] of the same sequence?
**A.** ≥ 20 µM

**Q.** What about the Kd [1, 48] of the same sequence?
**A.** 2.12 µM

**Q.** What about the Kd [4, 48] of the same sequence?
**A.** 3.11 µM

**Q.** What about the Kd [43] of the same sequence?
**A.** 2.8 µM
